Reference: PMC5722895

What was measured:
[1] = biological target: His6-tagged full-length TF (E. coli) (UniProt P0A850); assay: SEC-MALS; preliminary data on His6-tagged full-length TF; elution concentration 10 µM; conservative estimate of KD
[2] = biological target: RBD–SBD (1–148/247–432) (E. coli) (UniProt P0A850); assay: SEC-MALS; as a2 but 500 mM KCl; dimer to monomers
[3] = biological target: RBD–SBD (1–148/247–432) (E. coli) (UniProt P0A850); assay: AUC; sedimentation equilibrium, 6 °C, 100 mM KCl (sample buffer: 20 mM K-phosphate pH 6.5, 100 mM KCl, 0.5 mM EDTA); 12 μM TF, 48 and 135 μM RBD–SBD; global fit to a monomer–dimer model; dimer to monomers
[4] = biological target: RBD–SBD (1–148/247–432) (E. coli) (UniProt P0A850); assay: SEC-MALS; as a2 but 250 mM KCl; dimer to monomers
[5] = biological target: RBD–SBD (1–148/247–432) (E. coli) (UniProt P0A850); assay: SEC-MALS; sample buffer (20 mM K-phosphate pH 6.5, 100 mM KCl, 0.5 mM EDTA); 6 °C for the individual domains; concentration series fitted to a fast monomer–dimer equilibrium; dimer to monomers

Substance	Kd [1] [µM]	stoichiometry N [1]	Kd [2] [µM]	Kd [3] [µM]	Kd [4] [µM]	Kd [5] [µM]	stoichiometry N [5]
His6-tagged full-length TF (from UniProt P0A850 1-432) (natural protein)	< 0.1	2					
RBD–SBD (1–148/247–432) (from UniProt P0A850 1-148; P0A850 247-432) (domain or fragment)			> 500	54	> 500	72	2
